Ends that are not written are not given here.
How the values were obtained:
Assay in all cases: cyclic peptide substitution array
ApoC3 peptide E63D = target: T1, ApoC3 peptide E63D (human, not fully specified; cyclic (thioether))
T1 peptide: DKFSDFWDLDPEV
Outline: (§1)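 Peptide microarrays incubated with antibody samples, then stained with goat anti-human IgG (Fc) DyLight680 and anti-HA DyLight800 control antibodies, scanned at intensity 7/7 (red/green). Secondary-only pre-stain checked background binding; framing HA peptides served as quality control; substitution effects read as changes in spot intensity.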

ApoC3 peptide P69D = target: T2, ApoC3 peptide P69D (human, not fully specified; cyclic (thioether))
T2 peptide: DKFSEFWDLDDEV
Outline: as §1

ApoC3 peptide S62F = target: T3, ApoC3 peptide S62F (human, not fully specified; cyclic (thioether))
T3 peptide: DKFFEFWDLDPEV
Outline: as §1

ApoC3 peptide E70F = target: T4, ApoC3 peptide E70F (human, cyclic (thioether))
T4 peptide: DKFSEFWDLDPFV
Outline: as §1

ApoC3 peptide D68G = target: T5, ApoC3 peptide D68G (human, cyclic (thioether))
T5 peptide: DKFSEFWDLGPEV
Outline: as §1

ApoC3 peptide S62H = target: T6, ApoC3 peptide S62H (human, thioether (positions not given here); also: cyclic (thioether), ring places not given here)
T6 peptide: DKFHEFWDLDPEV
Outline: as §1

ApoC3 peptide W65H = target: T7, ApoC3 peptide W65H (human, cyclic (thioether))
T7 peptide: DKFSEFHDLDPEV
Outline: as §1

ApoC3 peptide D66H = target: T8, ApoC3 peptide D66H (human, not fully specified; cyclic (thioether))
T8 peptide: DKFSEFWHLDPEV
Outline: as §1

ApoC3 peptide E70H = target: T9, ApoC3 peptide E70H (human, cyclic (thioether))
T9 peptide: DKFSEFWDLDPHV
Outline: as §1

ApoC3 peptide D68I = target: T10, ApoC3 peptide D68I (human, cyclic (thioether))
T10 peptide: DKFSEFWDLIPEV
Outline: as §1

ApoC3 peptide E63K = target: T11, ApoC3 peptide E63K (human, cyclic (thioether))
T11 peptide: DKFSKFWDLDPEV
Outline: as §1

ApoC3 peptide F64K = target: T12, ApoC3 peptide F64K (human, thioether (positions not given here); not fully specified (bridges); also: cyclic (thioether), positions not given here)
T12 peptide: DKFSEKWDLDPEV
Outline: as §1

ApoC3 peptide P69K = target: T13, ApoC3 peptide P69K (human, not fully specified; cyclic (thioether))
T13 peptide: DKFSEFWDLDKEV
Outline: as §1

ApoC3 peptide D59M = target: T14, ApoC3 peptide D59M (human, thioether (positions not given here); not fully specified (C-terminus, bridges))
T14 peptide: MKFSEFWDLDPEV
Outline: as §1

ApoC3 peptide K60M = target: T15, ApoC3 peptide K60M (human, cyclic (thioether))
T15 peptide: DMFSEFWDLDPEV
Outline: as §1

ApoC3 peptide S62M = target: T16, ApoC3 peptide S62M (human, thioether (positions not given here); also: cyclic (thioether), ring places not given here)
T16 peptide: DKFMEFWDLDPEV
Outline: as §1

ApoC3 peptide E63M = target: T17, ApoC3 peptide E63M (human, cyclic (thioether))
T17 peptide: DKFSMFWDLDPEV
Outline: as §1

ApoC3 peptide D66M = target: T18, ApoC3 peptide D66M (human, not fully specified; cyclic (thioether))
T18 peptide: DKFSEFWMLDPEV
Outline: as §1

ApoC3 peptide V71M = target: T19, ApoC3 peptide V71M (human, thioether (positions not given here); also: cyclic (thioether), ring places not given here)
T19 peptide: DKFSEFWDLDPEM
Outline: as §1

ApoC3 peptide K60N = target: T20, ApoC3 peptide K60N (human, cyclic (thioether))
T20 peptide: DNFSEFWDLDPEV
Outline: as §1

ApoC3 peptide S62N = target: T21, ApoC3 peptide S62N (human, thioether (positions not given here); also: cyclic (thioether), ring places not given here)
T21 peptide: DKFNEFWDLDPEV
Outline: as §1

ApoC3 peptide D59P = target: T22, ApoC3 peptide D59P (human, thioether (positions not given here); not fully specified (C-terminus, bridges); also: cyclised via thioether between a C-terminal Cys and a modified N-terminus, the Cys and the N-terminal …)
T22 peptide: PKFSEFWDLDPEV
Outline: as §1

ApoC3 peptide E70P = target: T23, ApoC3 peptide E70P (human, cyclic (thioether))
T23 peptide: DKFSEFWDLDPPV
Outline: as §1

ApoC3 peptide L67R = target: T24, ApoC3 peptide L67R (human, thioether (positions not given here); not fully specified (bridges); also: thioether between a C-terminal Cys side chain and a modified N-terminus, the Cys is not in the chain)
T24 peptide: DKFSEFWDRDPEV
Outline: as §1

ApoC3 peptide E63S = target: T25, ApoC3 peptide E63S (human, cyclic (thioether))
T25 peptide: DKFSSFWDLDPEV
Outline: as §1

ApoC3 peptide W65S = target: T26, ApoC3 peptide W65S (human, cyclic (thioether))
T26 peptide: DKFSEFSDLDPEV
Outline: as §1

ApoC3 peptide K60T = target: T27, ApoC3 peptide K60T (human, cyclic (thioether))
T27 peptide: DTFSEFWDLDPEV
Outline: as §1

ApoC3 peptide K60W = target: T28, ApoC3 peptide K60W (human, cyclic (thioether))
T28 peptide: DWFSEFWDLDPEV
Outline: as §1

ApoC3 peptide D59Y = target: T29, ApoC3 peptide D59Y (human, not fully specified; cyclic (thioether))
T29 peptide: YKFSEFWDLDPEV
Outline: as §1

ApoC3 peptide L67A = target: T30, ApoC3 peptide L67A (human, not fully specified; cyclic (thioether))
T30 peptide: DKFSEFWDADPEV
Outline: as §1

ApoC3 peptide D68A = target: T31, ApoC3 peptide D68A (human, cyclic (thioether))
T31 peptide: DKFSEFWDLAPEV
Outline: as §1

ApoC3 peptide E70A = target: T32, ApoC3 peptide E70A (human, cyclic (thioether))
T32 peptide: DKFSEFWDLDPAV
Outline: as §1

B1: Llama antibody 5E5 (antibody, V domains shown)
VH: QLQLVESGGGLVQPGGSLRLSCAASGFTFGTYSMRWVRQVPRKALEWVSSISTDGGGTAYRDSVKGRFTISRDNAKNTLYLQMNNLKPEDTAIYYCVIAGYSDWGQGTQVTVSS
VL: ATMLTQSPGSLSVVPGESASISCKTSQGLVHSDGKTYFYWFLQKPGQSPQQLIYQVSNRASGVPDRFTGSGSGTDFTLKISGVKAEDAGVYYCAQGTYYPHTFGSGTRLEIK
notes: detected with goat anti-human IgG (Fc); also called mAb 5E5
ApoC3 peptide E63D
  % of binding to wild-type peptide: 29.9%
ApoC3 peptide P69D
  % of binding to wild-type peptide: 21.6%
ApoC3 peptide S62F
  % of binding to wild-type peptide: 1.25%
ApoC3 peptide E70F
  % of binding to wild-type peptide: 40.1%
ApoC3 peptide D68G
  % of binding to wild-type peptide: 3.59%
ApoC3 peptide S62H
  % of binding to wild-type peptide: 2.89%
ApoC3 peptide W65H
  % of binding to wild-type peptide: 0%
ApoC3 peptide D66H
  % of binding to wild-type peptide: 0%
ApoC3 peptide E70H
  % of binding to wild-type peptide: 50.5%
ApoC3 peptide D68I
  % of binding to wild-type peptide: 0%
ApoC3 peptide E63K
  % of binding to wild-type peptide: 19.1%
ApoC3 peptide F64K
  % of binding to wild-type peptide: 114%
ApoC3 peptide P69K
  % of binding to wild-type peptide: 20.7%
ApoC3 peptide D59M
  % of binding to wild-type peptide: 57.7%
ApoC3 peptide K60M
  % of binding to wild-type peptide: 186%
ApoC3 peptide S62M
  % of binding to wild-type peptide: 0%
ApoC3 peptide E63M
  % of binding to wild-type peptide: 13.1%
ApoC3 peptide D66M
  % of binding to wild-type peptide: 0%
ApoC3 peptide V71M
  % of binding to wild-type peptide: 138%
ApoC3 peptide K60N
  % of binding to wild-type peptide: 153%
ApoC3 peptide S62N
  % of binding to wild-type peptide: 0%
ApoC3 peptide D59P
  % of binding to wild-type peptide: 69.3%
ApoC3 peptide E70P
  % of binding to wild-type peptide: 55.2%
ApoC3 peptide L67R
  % of binding to wild-type peptide: 15.4%
ApoC3 peptide E63S
  % of binding to wild-type peptide: 47.9%
ApoC3 peptide W65S
  % of binding to wild-type peptide: 0%
ApoC3 peptide K60T
  % of binding to wild-type peptide: 177%
ApoC3 peptide K60W
  % of binding to wild-type peptide: 41.9%
ApoC3 peptide D59Y
  % of binding to wild-type peptide: 50.3%
ApoC3 peptide L67A
  % of binding to wild-type peptide: 21%
ApoC3 peptide D68A
  % of binding to wild-type peptide: 1.75%
ApoC3 peptide E70A
  % of binding to wild-type peptide: 50%
